Assay results from patent US9573983B2, “Compositions including I-domain antigen conjugate compounds and methods for treatment of autoimmune disorders” (University of Kansas, priority 2012, dated 2017).
Several values for one entry are separate records, joined by “and”; a condition that tells them apart may be missing. Identical values can stand only once.

Columns and labels:
[1] = Hydrolysis of maleimide groups upon storage; type: physicochemical; details: storage after SEC purification; to be used within 48 h
EAE mouse model = assay: Suppression of EAE, prophylactic and vaccine-like treatment (Example 2); type: in vivo, SJL/J female mice; details: for suppression of progress of EAE (clinical score, change in body weight, incidence of disease) / onset of disease: two i.v. injections, 26 nmol/injection, days 4 and 7; for onset of disease: I-domain controls; for onset of disease (clinical scores): IDAC molecules; for body weight change: p<0.05, days 12-24; for change in body weight: p<0.005, days 12-24
Experimental: Six-to-eight week old SJL/J female mice were immunized subcutaneously with 200 μg PLP139-151 peptide in a 0.2 ml emulsion consisting of equal volumes of PBS and complete Freund's adjuvant (CFA) containing killed mycobacterium tuberculosis strain H37RA at a final concentration of 4 mg/ml (Difco, Detroit, Mich.). The PLP/CFA emulsion was administered to regions above the shoulder and the flanks (total of 4 sites, 50 μl at each injection site). In addition, 200 ng of pertussis toxin was injected intraperitoneally on the day of immunization (day 0) and 2 days post-immunization.
The mice then received either intravenous or subcutaneous injections of IDAC (10 or 26 nmol/injection) or peptides (100 nmol/injection for Ac-PLP-BPI-NH2-2 or 50 nmol/injection/mouse for Ac-PLP-cIBR1-NH2). The prophylactic disease suppression was carried out with subcutaneous or intravenous injections of IDAC molecules on days 4 and 7, or BPI molecules on days 4, 7, and 10. Mice receiving vaccine-like treatment were given subcutaneous injections of IDAC and BPI molecules at 11, 8, and 5 days prior to the induction of disease. As negative controls, mice were treated with PBS, 1-domain, and GMB-I-domain. Disease progression was evaluated by monitoring the change in weight of the mice and clinical scoring based on the severity of nerve damage ranging from 0 to 5: 0—no clinical symptoms of disease; 1—tail weakness or limp tail; 2—paraparesis (weakness or partial paralysis of one or two hind limbs); 3—paraplegia (complete paralysis of two hind limbs); 4—paraplegia with forelimb weakness or paralysis; 5—moribund (at this point, the affected mice were euthanized).
(§1) Statistical differences among the groups in clinical disease scores were determined by calculating the average score for each mouse from day 12 to day 17 by one-way analysis of variance followed by Fisher's least significant difference. Statistical differences in body weight among groups were also analyzed in the same fashion, but from day 12 to day 24. Comparison of cytokine concentrations was also performed by one-way analysis of variance. All analyses were performed using StatView (SAS Institute, Cary, N.C.).

mouse EAE model = assay: Suppression of EAE in PLP139-151/CFA-immunized mice (Example 1); type: in vivo, female inbred SJL/J mice
Experimental: Female inbred SJL/J mice, 5-7 weeks old, were randomly divided into different groups. All mice were immunized with PLP139-151 in Freund's complete adjuvant (CFA) to induce EAE, as reported previously (3, 4). The PLP/CFA emulsion (50 μL per site) was administered to four separate regions above the shoulder and on the flanks. In addition, 200 ng of pertussis toxin (List Biological Laboratories Inc., Campbell, Calif.) was injected intraperitoneally on day 0 and 2.
After disease stimulation, one group of mice received intravenous (i.v.) injections of 26 nmol/injection/day of the conjugate IDAC on days 4 and 7. The second and third groups of mice received i.v. injections of 100 nmol/injection/day of Ac-PLP-BPI-NH2-2 and 100 microliter of PBS, respectively, on days 4, 7, and 10. The animals were weighed and observed daily. Disease progression was evaluated observed using a blinded method as reported previously (3, 4). The clinical scores were rated using the following scale: 0—no clinical signs of disease; 1—tail weakness or limp tail; 2—paraparesis (weakness or incomplete paralysis of one or two hind limbs); 3—paraplegia (complete paralysis of two hind limbs); 4—paraplegia with forelimb weakness or paralysis; and 5—moribund or dead.
Statistical differences among the groups in clinical disease scores were determined by calculating the average score for each mouse from the day of disease onset to day 20 by One-way Analysis of Variance followed by Fisher's least significant difference using StatView (SAS Institute, Cary, N.C.). Statistical differences among the groups in body weight were also analyzed in the same way. The presence of significant difference is denoted with p-values of <0.05 or <0.001.

splenocytes = assay: Cytokine levels in vitro from splenocytes of treated EAE mice (Q-Plex ELISA); type: cell-based, female SJL/J (H-2^s) mice; details: IDAC-3 26 nmol/injection s.c. days 4 and 7
Experimental: Representative spleens for each group (IDAC-3 or PBS) from Study 2 were harvested from female SJL/J (H-2^s) mice on days 13 and 35. Splenocytes were dispersed by gently smashing the spleen using the coarse portion of a 1 ml syringe in a petri dish containing RPMI 1640 medium (10% FBS, […]). The cells were then filtered through a 40 micrometer strainer. After centrifugation, the red blood cells were lysed using “ACK lysis buffer,” and the remaining white blood cells were washed three times with medium. Splenocytes (5×10^6 cells/ml) were cultured in parallel in the presence of 20 μM PLP and blank RPMI medium. Supernatants were collected at a 72 h time-point for the measurement of cytokine levels. The samples were then analyzed using a fully quantitative ELISA-based Q-Plex™ Mouse Cytokine-Screen (Quansys Biosciences, Logan, Utah).
as §1

[2] = i.v. 26 nmol/injection days 4 and 7, vs PBS
[3] = i.v. 26 nmol/injection days 4 and 7, vs PBS, p<0.0005, days 12-17
[4] = 3 injections, vaccine-like s.c.
[5] = s.c. 26 nmol/injection days 4 and 7, vs PBS
[6] = vaccine-like s.c. 10 nmol on days -11, -8, -5

B1: [N-(γ-maleimido)-1-oxybutyl]n-I-domain (protein, listed as Homo sapiens)
chain: MGNVDLVFLFDGSMSLQPDEFQKILDFMKDVMKKLSNTSYQFAAVQFSTSYKTEFDFSDYVKRKDPDALLKHVKHMLLLTNTFGAINYVATEVFREELGARPDATKVLIIITDGEATDSGNIDAAKDIIRYIIGIGKHFQTKESQETLHKFASKPASEFVKILDTFEKLKDLFTELQKKIY
modifications: GMBS maleimide-modified lysines
notes: I-domain with lysine amino groups modified by GMBS to carry maleimide groups; negative control and intermediate
- formation of maleimide hydrolysis products (stability) [1]: increased upon storage
- suppression of progress of EAE (clinical score, change in body weight, incidence of disease) (EAE mouse model; vs PBS): neither the I-domain nor GMB-I-domain significantly suppressed the progress of EAE
- onset of disease (EAE mouse model; vs PBS): slight delay in the onset of the disease

B2: I-domain: LFA-1 I-domain protein, SEQ ID NO: 1; negative control and carrier protein (protein, listed as Homo sapiens)
chain: B1 chain
- suppression of progress of EAE (clinical score, change in body weight, incidence of disease) (EAE mouse model; vs PBS): neither the I-domain nor GMB-I-domain significantly suppressed the progress of EAE
- onset of disease (EAE mouse model; vs PBS): slight delay in the onset of the disease

B3: (HSLGKWLGHPDKFC)n-linker-I-domain (conjugate, listed as Homo sapiens)
chain 1: HSLGKWLGHPDKFC
chain 2: B1 chain
modifications: maleimide linker conjugation, ~2.5 peptides; Chemically synthesized signal 1 moiety peptide with amino acids 139-151 of PLP protein modified with a terminal cysteine
notes: PLP-Cys-OH peptides conjugated via maleimide linkers to lysine residues of LFA-1 I-domain; average 2.5 peptides per I-domain
- clinical disease scores (suppression of EAE) (mouse EAE model; i.v., IDAC 26 nmol/injection days 4, 7, Ac-PLP-BPI-NH2-2 100 nmol/injection days 4, 7, 10, vs PBS, p<0.0001, days 12-17): significant efficacy to suppress the progress of EAE
- incidence of disease (mouse EAE model; i.v., IDAC 26 nmol/injection days 4, 7, Ac-PLP-BPI-NH2-2 100 nmol/injection days 4, 7, 10, vs PBS, p<0.0001, days 12-24): delayed
- change in body weight (mouse EAE model; i.v., IDAC 26 nmol/injection days 4, 7, vs PBS): prevent the changes of bodyweights of the mice significantly
- efficacy compared with the BPI molecule (mouse EAE model; two i.v. injections of 26 nmol IDAC vs three of 100 nmol Ac-PLP-BPI-NH2-2): appeared less than that of the BPI molecule
- disease incidence (EAE mouse model; [2]): delays in disease incidence
- onset of disease (clinical scores) (EAE mouse model; [2]): delayed the onset of disease
- clinical scores (suppression of EAE) (EAE mouse model; [3]): significantly better at suppressing EAE than PBS
- body weight change (EAE mouse model; [2]): significantly more effective than PBS in suppressing disease

B4: (Ac-HSLGKWLGHPDKFC-NH2)n-linker-I-domain (conjugate, listed as Homo sapiens)
chain 1: HSLGKWLGHPDKFC
chain 2: B1 chain
modifications: Ac, NH2 caps; maleimide linker; Chemically synthesized signal 1 moiety peptide with amino acids 139-151 of PLP protein modified with a terminal cysteine
notes: Ac-PLP-Cys-NH2 (capped) peptides conjugated via maleimide linkers to lysine residues of I-domain
- IL-5 level compared to PBS-treated group (splenocytes; day 13): no significant difference
- IL-10 level (splenocytes; day 13): could not be detected
- IL-2 level, PBS-treated vs IDAC-3-treated group (splenocytes; day 13, p<0.05): IL-2 cytokine levels were higher than in the IDAC-3-treated group
- IL-2 level, PBS-treated vs IDAC-3-treated group (splenocytes; day 35): no significant difference
- IL-17 level compared to PBS-treated group (splenocytes; day 35, p<0.0001): fourfold lower
- IL-5 level compared to PBS-treated group (splenocytes; day 35, p<0.0005): significantly higher
- IL-12 level compared to PBS-treated group (splenocytes; day 35, p<0.005): significantly lower
- IL-10 level compared to PBS group (splenocytes; day 35, p<0.05): significantly higher levels
- maximum toxic concentration (estimated therapeutic window) (EAE mouse model; [4]): 26 nmol
- minimum effective concentration (estimated therapeutic window) (EAE mouse model; [4]): 10 nmol
- clinical scores, IDAC-3 compared with IDAC-1 (EAE mouse model; i.v. 26 nmol/injection days 4 and 7, p<0.005, days 12-17): better than IDAC-1 in suppressing EAE
- disease incidence (EAE mouse model; [2]): delays in disease incidence
- onset of disease (clinical scores) (EAE mouse model; [2]): delayed the onset of disease
- clinical scores (suppression of EAE) (EAE mouse model; [3]): significantly better at suppressing EAE than PBS
- body weight change (EAE mouse model; [2]): significantly more effective than PBS in suppressing disease
- disease incidence (EAE mouse model; [5]): significantly more efficacious than PBS in suppressing EAE
- clinical scores (suppression of EAE) (EAE mouse model; s.c. 26 nmol/injection days 4 and 7, vs PBS, p<0.005, days 12-17): significantly more efficacious than PBS in suppressing EAE
- change in body weight (EAE mouse model; [5]): significantly more efficacious than PBS in suppressing EAE
- anaphylaxis (EAE mouse model; [6]): did not result in anaphylaxis
- efficacy of low dose compared with 26 nmol dose (EAE mouse model; [6]): not as effective as the 26 nmol dose
- efficacy of high dose compared with other groups (EAE mouse model; vaccine-like s.c. 26 nmol/injection days -11, -8, -5, four animals, no statistical analysis): seemed to be better than the lower dose (10 nmol/injection) group and similar to the Ac-PLP-BPI-NH2-2-treated group
- toxic effect / adverse events (mice affected) (EAE mouse model; vaccine-like s.c. 26 nmol/injection, third injection (day -5)): two of six mice and 2 of the 6 mice
- potency compared with Ac-PLP-BPI-NH2-2 (EAE mouse model; vaccine-like s.c. days -11, -8, -5, IDAC-3 10 nmol/injection vs Ac-PLP-BPI-NH2-2 100 nmol/injection): less potent than Ac-PLP-BPI-NH2-2
- clinical scores (suppression of EAE) (EAE mouse model; vaccine-like s.c. days -11, -8, -5, IDAC-3 10 nmol/injection, Ac-PLP-BPI-NH2-2 100 nmol/injection, vs PBS, p<0.005, days 12-17): significantly better clinical scores
- change in body weight (EAE mouse model; vaccine-like s.c. days -11, -8, -5, IDAC-3 10 nmol/injection, Ac-PLP-BPI-NH2-2 100 nmol/injection, vs PBS): significantly better
- onset of disease (incidence of disease) (EAE mouse model; vaccine-like s.c., IDAC-3 26 nmol/injection days -11, -8, Ac-PLP-BPI-NH2-2 100 nmol/injection days -11, -8, -5): Delay in the onset of disease
- relapse of disease (long-term effect) (EAE mouse model; vaccine-like s.c., IDAC-3 26 nmol/injection days -11, -8, Ac-PLP-BPI-NH2-2 100 nmol/injection days -11, -8, -5, days 45-55): long-term effect in suppressing relapse of the disease
- clinical scores (suppression of EAE) (EAE mouse model; vaccine-like s.c., IDAC-3 26 nmol/injection days -11, -8, vs PBS, p<0.0001, days 12-17 and 45-55): suppressed EAE significantly better than PBS
- change of body weight (EAE mouse model; vaccine-like s.c., IDAC-3 26 nmol/injection days -11, -8, vs PBS, p<0.0001, days 12-24): suppressed EAE significantly better than PBS
